Assay results taken from PMC5027281 (Nature Communications, 2016).

Columns and labels:
Settings in all cases: both partners purified
[1] = target: T1, Recombinant full-length HA of A/Vietnam/1203/04 (H5-VN04) (Influenza A virus A/Vietnam/1203/2004 …, UniProt Q5EP31); test: ELISA
[2] = target: Recombinant full-length HA of A/California/04/09 (H1-CA09) (influenza A virus A/California/04/09, UniProt C3W5S1); test: BLI
[3] = target: T1, Recombinant full-length HA of …; test: BLI

B1: 39.29 scFvFc (scFv, V domains shown)
VH: VQLVESGGGVVQPGKSPRLSCAASGPTFSSYAVHWVRQAPGKGLEWVTLISYDGANQYYADSVKGRFTISRDNSKNTVYLQMNSLRPEDTAVYYCAVPGPVFGIFPPWSYFDNWGQGILVTVSS
VL: IVLTQSPATLSVSPGERATLSCRASQVISHNLAWYQQKPGQAPRLLIYGASTRASGIPARFSGSGSGTDYTLTITSLQPEDFAVYYCQHYSNWPPRLTFGGGTKVEIK
B1: binds [1].

B2: F10 scFvFc (scFv, V domains shown)
VH: QVQLVQSGAEVKKPGSSVKVSCTSSEVTFSSFAISWVRQAPGQGLEWLGGISPMFGTPNYAQKFQGRVTITADQSTRTAYMDLRSLRSEDTAVYYCARSPSYICSGGTCVFDHWGQGTLVTVSS
VL: QPGLTQPPSVSKGLRQTATLTCTGNSNNVGNQGAAWLQQHQGHPPKLLSYRNNDRPSGISERFSASRSGNTASLTITGLQPEDEADYYCSTWDSSLSAVVFGGGTKLTVL
B2: binds [1].

B3: 3I14-mHgL IgG1 (mature heavy chain, germline light chain) (antibody, V domains shown)
VH: QVQLLESGGGVVQPGRSLRLSCAASGFTFSNYGMHWVRQAPGKGLEWVAIISFDGSKKYYANSVKGRSTISRDNSKNTLSLQMNSLGPEDTALYYCAKLPSPYYFDSRFVWVAASAFHFWGQGILVTVSS
VL: not shown
For B3, the Kd [2] was under 0.001 nM, the koff [2] was under 1e-07 s⁻¹ and the kon [2] was 138000 M⁻¹ s⁻¹.

B4: 3I14-gHmL IgG1 (germline heavy chain, mature light chain) (antibody, V domains shown)
VH: QVQLVESGGGVVQPGRSLRLSCAASGFTFSSYGMHWVRQAPGKGLEWVAVISYDGSNKYYADSVKGRFTISRDNSKNTLYLQMNSLRAEDTAVYYCAKLPSPYYYDSRFVWVAASYFDYWGQGTLVTVSS
VL: NFMLTQPPSASGTPGQRVTISCSGSSSNIGGNTVHWFQQLPGTAPKLLIYTNSLRPSGVPDRFSGSKSGTSASLAISGLQSEDEADYYCAAWDDSLNGQVFGGGTKLTVL
With B4 the Kd [2] was under 0.001 nM, the koff [2] was under 1e-07 s⁻¹ and the kon [2] was 155000 M⁻¹ s⁻¹. The Kd [3] was 1.95 nM, the koff [3] was 0.000844 s⁻¹ and the kon [3] was 434000 M⁻¹ s⁻¹.
